Assay results as given in article PMC4351158 (Structure (London, England : 1993), 2015).
Where no end group is shown, it is not given here. fluorescein = fluorescein, a fluorescent label on the peptide N-terminus

Experiments:
Assay in all cases: fluorescence polarisation
[1] = target: T1, DegS D221A/H198P (E. coli, UniProt P0AEE3 27-355, D221A | H198P)
T1 sequence (looked up): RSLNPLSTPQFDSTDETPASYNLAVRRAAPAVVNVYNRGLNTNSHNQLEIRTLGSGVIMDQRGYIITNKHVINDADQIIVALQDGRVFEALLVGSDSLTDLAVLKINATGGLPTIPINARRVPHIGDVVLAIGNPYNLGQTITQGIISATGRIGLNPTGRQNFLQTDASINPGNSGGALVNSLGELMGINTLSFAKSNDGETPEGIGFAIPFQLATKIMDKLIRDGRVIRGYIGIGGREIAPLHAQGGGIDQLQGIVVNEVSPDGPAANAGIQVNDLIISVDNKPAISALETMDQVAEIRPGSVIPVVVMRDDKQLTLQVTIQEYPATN

[2] = target: T2, DegS H198P (E. coli, UniProt P0AEE3 27-355, H198P)
T2 sequence (looked up): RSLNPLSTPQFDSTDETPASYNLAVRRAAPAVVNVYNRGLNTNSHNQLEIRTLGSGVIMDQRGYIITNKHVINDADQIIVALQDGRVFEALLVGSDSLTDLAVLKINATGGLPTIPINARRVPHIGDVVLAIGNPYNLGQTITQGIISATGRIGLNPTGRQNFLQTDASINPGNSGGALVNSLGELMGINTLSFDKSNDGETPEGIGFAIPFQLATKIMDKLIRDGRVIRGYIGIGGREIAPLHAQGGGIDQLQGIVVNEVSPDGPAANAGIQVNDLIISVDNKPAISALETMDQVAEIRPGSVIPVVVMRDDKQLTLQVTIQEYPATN

[3] = target: T3, DegS I179A/H198P (E. coli, UniProt P0AEE3 27-355, I179A | H198P)
T3 sequence (looked up): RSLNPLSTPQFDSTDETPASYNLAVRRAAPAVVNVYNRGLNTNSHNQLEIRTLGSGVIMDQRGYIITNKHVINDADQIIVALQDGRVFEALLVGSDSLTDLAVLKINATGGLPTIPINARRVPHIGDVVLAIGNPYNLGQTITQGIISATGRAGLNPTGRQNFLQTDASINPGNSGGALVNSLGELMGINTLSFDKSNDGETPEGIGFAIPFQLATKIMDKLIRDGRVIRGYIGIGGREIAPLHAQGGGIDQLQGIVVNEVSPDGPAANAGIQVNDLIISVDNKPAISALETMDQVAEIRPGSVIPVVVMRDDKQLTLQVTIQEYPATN

[4] = target: T4, DegS N197A/H198P (E. coli, UniProt P0AEE3 27-355, N197A | H198P)
T4 sequence (looked up): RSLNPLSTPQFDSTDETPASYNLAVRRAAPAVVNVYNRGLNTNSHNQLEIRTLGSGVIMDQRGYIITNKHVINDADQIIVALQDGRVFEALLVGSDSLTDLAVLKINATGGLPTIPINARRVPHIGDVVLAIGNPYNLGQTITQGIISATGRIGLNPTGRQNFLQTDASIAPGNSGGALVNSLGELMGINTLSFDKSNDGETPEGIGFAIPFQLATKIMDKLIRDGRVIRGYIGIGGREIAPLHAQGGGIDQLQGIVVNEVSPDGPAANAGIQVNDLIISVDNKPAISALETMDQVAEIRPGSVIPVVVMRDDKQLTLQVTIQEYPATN

[5] = target: T5, DegS Q191A/H198P (E. coli, UniProt P0AEE3 27-355, Q191A | H198P)
T5 sequence (looked up): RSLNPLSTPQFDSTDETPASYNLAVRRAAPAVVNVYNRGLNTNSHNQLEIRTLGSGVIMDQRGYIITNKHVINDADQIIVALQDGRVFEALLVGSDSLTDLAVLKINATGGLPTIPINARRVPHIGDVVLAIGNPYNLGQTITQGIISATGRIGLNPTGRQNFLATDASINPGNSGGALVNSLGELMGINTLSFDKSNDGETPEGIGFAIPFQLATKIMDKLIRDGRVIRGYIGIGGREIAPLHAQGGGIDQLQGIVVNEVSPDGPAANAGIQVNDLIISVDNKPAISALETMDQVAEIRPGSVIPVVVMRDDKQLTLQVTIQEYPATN

Kd [1]: 1.7 ± 0.1 µM | Kd [2]: 2.5 ± 0.3 µM | Kd [3]: 1.6 ± 0.1 µM | Kd [4]: 0.7 ± 0.1 µM | Kd [5]: 1.4 ± 0.1 µM
B1: fluorescent OMP peptide fluorescein-DNRDGNVYYF (peptide)
peptide: fluorescein-DNRDGNVYYF
